These are literature values, as cited in article PMC11273449.

Data set [1] concerns the target Spike S1 subunit, BA.1 (SARS-CoV-2 BA.1 (Omicron)) (UniProt P0DTC2). Kind of data set: cited. The conditions noted are these: 5' hexynyl.
The subject of data set [2] is Influenza A virion (Influenza A/PR/8/34). Kind of data set: cited. The conditions noted are these: 5' hexynyl.

Regarding “TTTTTACGCCAAGGTGTCACTCCGTAGGGTTTGGCTCCGGGCCTGGCGTCGGTCGCGAAGCATCTCCTTGGCGT [Aptamer 4 (particle)]”, in data set [1], the Kd was 5 nM.

As to “TTTTTGGCAGGAAGACAAACAGCCAGCGTGACAGCGACGCGTAGGGACCGGCATCCGCGGGTGGTCTGTGGTGCTGT [Influenza A aptamer (particle)]”, the dissociation constant Kd in data set [2] is 55 nM.
